Article doi:10.1101/2020.04.03.022855 (bioRxiv, 2020)

Molecular target: the molecule itself
Assay: cross-linking

B1: Seventeen kilodalton protein (Skp), unlabelled (natural protein, Escherichia coli, UniProt P0AEU7 21-161, looked up)
chain: ADKIAIVNMGSLFQQVAQKTGVSNTLENEFKGRASELQRMETDLQAKMKKLQSMKAGSDRTKLEKDVMAQRQTFAQKAQAFEQDRARRSNEERGKLVTRIQTAVKSVANSQDIDLVVDANAVAYNSSDVKDITADVLKQVK
  stoichiometry N: 3
